Here are results for eight molecules from PMC5766158 (Nucleic Acids Research, 2017).

The labels stand for the following.
B5: STN1N-Strep (domain or fragment)
chain: MQPGSSRCEEETPSLLWGLDPVFLAFAKLYIRDILDMKESRQVPGVFLYNGHPIKQVDVLGTVIGVRERDAFYSYGVDDSTGVINCICWKKLNTESVSAAPSAARELSLTSQLKKLQETIEQKTKIEIGDTIRVRGSIRTYREEREIHATTYYKVDDPVWNIQIARMLELPTIYRKVYDQPFHSSALEKE
B7: POLA2(1-334)-FG3 (domain or fragment)
chain: MSASAQQLAEELQIFGLDCEEALIEKLVELCVQYGQNEEGMVGELIAFCTSTHKVGLTSEILNSFEHEFLSKRLSKARHSTCKDSGHAGARDIVSIQELIEVEEEEEILLNSYTTPSKGSQKRAISTPETPLTKRSVSTRSPHQLLSPSSFSPSATPSQKYNSRSNRGEVVTSFGLAQGVSWSGRGGAGNISLKVLGCPEALTGSYKSMFQKLPDIREVLTCKIEELGSELKEHYKIEAFTPLLAPAQEPVTLLGQIGCDSNGKLNNKSVILEGDREHSSGAQIPVDLSELKEYSLFPGQVVIMEGINTTGRKLVATKLYEGVPLPFYQPTEED
B8: full length STN1-Strep (STN1F-Strep) (natural protein)
chain: MQPGSSRCEEETPSLLWGLDPVFLAFAKLYIRDILDMKESRQVPGVFLYNGHPIKQVDVLGTVIGVRERDAFYSYGVDDSTGVINCICWKKLNTESVSAAPSAARELSLTSQLKKLQETIEQKTKIEIGDTIRVRGSIRTYREEREIHATTYYKVDDPVWNIQIARMLELPTIYRKVYDQPFHSSALEKEEALSNPGALDLPSLTSLLSEKAKEFLMENRVQSFYQQELEMVESLLSLANQPVIHSASSDQVNFKKDTTSKAIHSIFKNAIQLLQEKGLVFQKDDGFDNLYYVTREDKDLHRKIHRIIQQDCQKPNHMEKGCHFLHILACARLSIRPGLSEAVLQQVLELLEDQSDIVSTMEHYYTAF

The test “STN1N-Strep” addresses B5. Briefly: pull-down.
In the next test the target is T1, POLA2-FLAG (human, UniProt Q14181 1-598).
T1 sequence: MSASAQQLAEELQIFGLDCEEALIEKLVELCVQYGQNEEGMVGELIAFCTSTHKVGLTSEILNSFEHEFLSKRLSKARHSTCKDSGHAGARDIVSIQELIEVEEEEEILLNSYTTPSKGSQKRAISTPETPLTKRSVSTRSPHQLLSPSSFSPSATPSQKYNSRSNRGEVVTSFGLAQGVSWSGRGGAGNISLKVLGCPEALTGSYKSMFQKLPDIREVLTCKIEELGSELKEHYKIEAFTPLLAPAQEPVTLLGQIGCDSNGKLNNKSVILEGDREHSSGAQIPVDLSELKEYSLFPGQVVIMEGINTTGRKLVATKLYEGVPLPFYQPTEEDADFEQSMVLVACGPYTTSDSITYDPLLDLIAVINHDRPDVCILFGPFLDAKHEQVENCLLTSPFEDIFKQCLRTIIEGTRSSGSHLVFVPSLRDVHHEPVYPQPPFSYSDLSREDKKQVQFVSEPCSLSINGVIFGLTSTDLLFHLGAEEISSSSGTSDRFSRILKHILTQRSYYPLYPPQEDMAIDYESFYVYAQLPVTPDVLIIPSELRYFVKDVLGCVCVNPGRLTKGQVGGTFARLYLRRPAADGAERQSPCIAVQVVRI
The test is described as follows: cell-based or functional assay.

The target of the next test is T2, POLA2(1-414)-FG3 (human, UniProt Q14181 1-414).
T2 sequence: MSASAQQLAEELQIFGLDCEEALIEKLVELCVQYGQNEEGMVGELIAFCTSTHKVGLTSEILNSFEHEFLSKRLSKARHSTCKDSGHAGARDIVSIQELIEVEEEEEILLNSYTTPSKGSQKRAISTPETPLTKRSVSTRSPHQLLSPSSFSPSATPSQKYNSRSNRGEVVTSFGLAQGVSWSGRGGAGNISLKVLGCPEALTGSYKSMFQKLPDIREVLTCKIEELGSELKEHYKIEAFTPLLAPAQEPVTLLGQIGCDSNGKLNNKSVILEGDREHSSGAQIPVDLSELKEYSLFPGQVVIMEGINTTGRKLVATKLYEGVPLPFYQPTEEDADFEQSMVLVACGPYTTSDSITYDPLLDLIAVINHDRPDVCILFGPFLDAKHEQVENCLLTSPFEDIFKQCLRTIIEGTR
The test is described as follows: pull-down.

The target in the test “POLA2(1-334)-FG3” is B7. Briefly: pull-down.
In test [1] the target is B8. Briefly: pull-down.

B1: POLA2OB-FG3 (domain or fragment)
chain: GSYKSMFQKLPDIREVLTCKIEELGSELKEHYKIEAFTPLLAPAQEPVTLLGQIGCDSNGKLNNKSVILEGDREHSSGAQIPVDLSELKEYSLFPGQVVIMEGINTTGRKLVATKLYEGVPLPFYQPTEED
For the molecule B1, in the test with STN1N-Strep, the binding result was “binds”.

B2: STN1N-Strep R135T (domain or fragment)
chain: MQPGSSRCEEETPSLLWGLDPVFLAFAKLYIRDILDMKESRQVPGVFLYNGHPIKQVDVLGTVIGVRERDAFYSYGVDDSTGVINCICWKKLNTESVSAAPSAARELSLTSQLKKLQETIEQKTKIEIGDTIRVTGSIRTYREEREIHATTYYKVDDPVWNIQIARMLELPTIYRKVYDQPFHSSALEKE
In the case of B2, in the test with POLA2-FLAG, the “PP stimulatory activity against wild-type STN1N (1.5 uM, poly-dT template)” value worked out at 2 fold.

B3: STN1N-Strep R135W (domain or fragment)
chain: MQPGSSRCEEETPSLLWGLDPVFLAFAKLYIRDILDMKESRQVPGVFLYNGHPIKQVDVLGTVIGVRERDAFYSYGVDDSTGVINCICWKKLNTESVSAAPSAARELSLTSQLKKLQETIEQKTKIEIGDTIRVWGSIRTYREEREIHATTYYKVDDPVWNIQIARMLELPTIYRKVYDQPFHSSALEKE
For B3, the binding result in the test with POLA2(1-414)-FG3 is reported as “binds”.

B4: STN1N-Strep D157Y (domain or fragment)
chain: MQPGSSRCEEETPSLLWGLDPVFLAFAKLYIRDILDMKESRQVPGVFLYNGHPIKQVDVLGTVIGVRERDAFYSYGVDDSTGVINCICWKKLNTESVSAAPSAARELSLTSQLKKLQETIEQKTKIEIGDTIRVRGSIRTYREEREIHATTYYKVDYPVWNIQIARMLELPTIYRKVYDQPFHSSALEKE
As for B4, the binding result with POLA2(1-414)-FG3 is given as “binds”.

With B5, the binding result in the test with POLA2(1-334)-FG3 and with POLA2(1-414)-FG3 was “binds” throughout.

B6: STN1N-Strep OBM-2 (W89A/R139A/Y141A) (domain or fragment)
chain: MQPGSSRCEEETPSLLWGLDPVFLAFAKLYIRDILDMKESRQVPGVFLYNGHPIKQVDVLGTVIGVRERDAFYSYGVDDSTGVINCICAKKLNTESVSAAPSAARELSLTSQLKKLQETIEQKTKIEIGDTIRVRGSIATAREEREIHATTYYKVDDPVWNIQIARMLELPTIYRKVYDQPFHSSALEKE
As for B6, in the test with POLA2(1-414)-FG3, the binding result was “binds”.

As to B7, the binding result in test [1] is “binds”.

Regarding B8, the binding result with POLA2(1-414)-FG3 is “binds”.
